# Measurements from patent publication US20110059015A1, “VACCINE” (priority 2002, published 2011).
# B1: Fab S8: human IgG1 anti-gp120 Fab from LTNP donor; light chain SEQ ID 2, heavy chain SEQ ID 4 (antibody, listed as Homo sapiens)
# heavy: LESGGGLVKPGGSLRLSCAASGFTFSSYAMHWVRQAPGKGLEWVAFIWFDGSNERYADSVKGRFTITRDNPKNTLYLQMNSLRVEDTAVYYCVRRGGSILTGFHLDYWGQGTLVTVSSASTKGPSVFPLAPSSKSTSGGTAALGCLVKDYFPEPVTVSWNSGALTSGVHTFPAVLQSSGLYSLSSVVTVPSSSLGTQTYICNVNHKPSNTKVDKRVEPKSCDKTS
# light: ELTQSPSSLSASVGDRVTITCRASQGIRDDLGWYQQKPGKAPKRLIYAASNLQSGVPSRFSGGGSGTEFTLTISSLQPEDFATYYCLQHNSYPLTFGGGTKVEIKRTVAAPSVFIFPPSDEQLKSGTASVVCLLNNFYPREAKVQWKVDNALQSGNSQESVTEQDSKDSTYSLSSTLTLSKADYEKHKVYACEVTHQGLSSPVTKSFNKGKVLIL
# modifications: S8 Heavy chain; Light chain
# B2: Fab S20: human IgG1 anti-gp120 Fab; light chain SEQ ID 2, heavy chain SEQ ID 8 (antibody, listed as Homo sapiens)
# heavy: LESGGGVVQPGRSLRLSCSASGFSFRDYAMHWVRQAPGKGLEWVAFIWFDGSNERYADSVKGRFTITRDNPKNTLYLQMNSLRVEDTAVYYCVRRGGSILTGFHLDYWGQGTLVTVSSASTKGPSVFPLAPSSKSTSGGTAALGCLVKDYFPEPVTVSWNSGALTSGVHTFPAVLQSSGLYSLSSVVTVPSSSLGTQTYICNVNHKPSNTKVDKRVEPKSCDKTS
# light: ELTQSPSSLSASVGDRVTITCRASQGIRDDLGWYQQKPGKAPKRLIYAASNLQSGVPSRFSGGGSGTEFTLTISSLQPEDFATYYCLQHNSYPLTFGGGTKVEIKRTVAAPSVFIFPPSDEQLKSGTASVVCLLNNFYPREAKVQWKVDNALQSGNSQESVTEQDSKDSTYSLSSTLTLSKADYEKHKVYACEVTHQGLSSPVTKSFNKGKVLIL
# modifications: S20 Heavy chain; Light chain
# B3: Fab S19: human IgG1 anti-gp120 Fab; light chain SEQ ID 2, heavy chain SEQ ID 6 (antibody, listed as Homo sapiens)
# heavy: LESGGGVVQPGRSLRLSCAASGFSFSSHGMHWVRQAPGKGLEWVAFIWFDGSNERYADSVKGRFTITRDNPKNTLYLQMNSLRVEDTAVYYCVRRGGSILTGFHLDYWGQGTLVTVSSASTKGPSVFPLAPSSKSTSGGTAALGCLVKDYFPEPVTVSWNSGALTSGVHTFPAVLQSSGLYSLSSVVTVPSSSLGTQTYICNVNHKPSNTKVDKRVEPKSCDKTS
# light: ELTQSPSSLSASVGDRVTITCRASQGIRDDLGWYQQKPGKAPKRLIYAASNLQSGVPSRFSGGGSGTEFTLTISSLQPEDFATYYCLQHNSYPLTFGGGTKVEIKRTVAAPSVFIFPPSDEQLKSGTASVVCLLNNFYPREAKVQWKVDNALQSGNSQESVTEQDSKDSTYSLSSTLTLSKADYEKHKVYACEVTHQGLSSPVTKSFNKGKVLIL
# modifications: S19 Heavy chain; Light chain
# How the values were obtained:
# HIV-1 LAI strain = test: Infectivity reduction assay (IRA) in MT-2 cells, LAI; type: cell-based; settings: Fab 10 μg/ml
# Procedure: (§1) The infectivity reduction assay (IRA) was performed using in MT-2 cells. Virus titer of LAI, SF-2, MN and RF strains was determined in MT-2 cells and expressed as TCID50 (50% tissue culture infective doses), calculated by the Spearman-Karber formula. Five 10-fold virus dilutions were mixed with different concentrations of Fabs S20, S19, S8, M02 and M025 and incubated (37° C., 1 h, 5% CO2), then added to a 96-well microtiter plate containing 10^5 MT-2 cells/well. Fresh medium (100 μl) was added 4 days later. Cytopathic effect (CPE), characterised by the appearance of giant multinuclear cells, was quantified on day 7. Six replicate wells were made for each dilution. Neutralisation was calculated by the formula % neutralisation=(1−p/n)×100, where p is the mean titer in TCID50/ml of virus produced in cultures incubated with the correspondent mixture and n is the mean titer of virus produced in cultures incubated without Fabs. Each titer point is the mean of two individual experiments.
# HIV-1 Bal = test: In vivo neutralisation of HIV-1 Bal infection in SCID-hu-PBMC mice; settings: Fab 100 μg i.p. x3
# Excerpt: (A) Neutralisation of the HIV-1 MN strain by IgM Fabs M02 and M025 and IgG Fabs S8, S19 and S20 determined by plaque assay (NPA) in MT-4 cells. […] SCID mice grafted with adult human PBMC (SCID-hu-PBMC) sensitive to HIV-1 infection were infected 2 weeks after reconstitution with cell-free HIV-1 Bal stocks containing 100 TCID50. […] Peritoneal cells were recovered after 15 days and co-cultured with PHA-activated PBMC from HIV-1-seronegative individuals. Co-cultures were monitored in ELISA for HIV-1 core antigen in supernatant at days 7 (left) and 14 (right), and were considered positive when p24 was >30 ng/ml.
# CB.17 SCID/SCID mice were bred and maintained under specific pathogen-free conditions in the Centro Nacional de Biotecnologia animal facility. Eight- to 10-week-old non-leaky phenotype mice were reconstituted by i.p. injection of 20×10^6 freshly isolated normal human PBMC. […] Mice were infected 2 weeks after PBMC reconstitution by i.p. injection of 0.5 ml of diluted cell-free HIV-1 Bal stocks containing 100 TCID50. Two weeks after viral challenge, mice were killed by cervical dislocation and peritoneal cells obtained by washing with ice cold PBS. […] Co-cultures were monitored by ELISA for HIV-1 core antigen in supernatant on days 7 and 14, and were considered positive when p24 was >30 ng/ml.
# HIV-1 MN strain = test: Neutralisation plaque assay (NPA) in MT-4 cells; type: cell-based
# Procedure: A neutralisation plaque assay (NPA) was established in MT-4 cells (Harada, et al., 1985) with minor modifications (Sánchez, et al., 1993). Six-well plates (Costar, Calif.) were incubated with 1 ml of poly-L-lysine (50 μg/ml, Sigma) for 60 min at room temperature and washed three times in phosphate-buffered saline (PBS, pH 7). MT-4 cells (4×10^6/well) were added and incubated 2 h, after which unbound cells were removed. Neutralisation was performed with 100 plaque-forming units (pfu) of virus and five purified Fabs (S20, S19, S8, M02 and M025) at different concentrations. The virus-antibody mixture was incubated (37° C., 3 h), slowly added to the plates and adsorbed (37° C., 90 min), after which virus was removed and 2 ml of agarose medium (0.2% SeaPlaque agarose in complete RPMI medium) were added. Plates were incubated (37° C., 5% CO2 atmosphere), and 2 ml of agarose medium were added on day 3. Plaque production was counted with the naked eye on day 7. Neutralisation titer was calculated according to the formula % neutralisation=(1−p/n)×100, where p is the amount of virus produced in presence of the corresponding Fab, n is the mean amount of virus produced without Fab, measured by number of plaques in cultures.
# [1] = system: donor virus isolate (LTNP HIV-1); test: IRA in PBMC with donor virus isolate; type: cell-based; settings: Fab 25 μg/ml
# Procedure: PBMC obtained from the patient in 1996 were cocultured with HIV-1-seronegative PBMC which had been stimulated for 3 days with phytohemagglutinin (PHA). Coculture was maintained in medium with interleukin-2 (IL-2) for at least 40 days (37° C., 5% CO2). Fresh PBMC were added each week and p24 antigen production was monitored every 7 days. Supernatant was harvested and characterised by TCID50% on stimulated PBMC. Supernatant (1 ml) from the coculture (1.3×10^3 TCID50%) was inoculated in 10×10^6 PBMC. After incubation (1 h, 37° C.), cells were centrifugated and 10 ml of RPMI with […] were added. Virus was grown and harvested. This first-passage virus stock was used to perform the IRA in PBMC. […] Medium with IL-2 was changed twice a week. After 14 days, the p24 assay was performed and TCID50% calculated. Neutralisation titer was calculated according to the formula given above.
# HIV-1 SF-2 = test: Infectivity reduction assay (IRA) in MT-2 cells, SF-2; type: cell-based; settings: Fab 10 μg/ml, SF-2, MT-2 cells
# Procedure: as §1
# HIV-1 X4 (NL4-3) = test: p24 quantification after PBMC infection, X4 strain; type: cell-based; settings: NL4-3, PBMC, p24 on day 7
# Procedure: (§2) Excess virus and Fab were removed by washing, and PBMC incubated in complete RPMI 1640 at 37° C. Every two days after infection, half the culture supernatant (500 μl) was removed and replaced with fresh medium containing rhIL-2 and Fabs at the above concentration. Cell-free supernatants were tested for HIV-1 p24 antigen on day 7 using a commercial ELISA test (Coulter, Miami, Fla.). The percentage of neutralisation was calculated as the ratio between p24 levels for test samples a lone or with Fabs. Irrelevant HmFab P1 (10 μg/ml) was used as a negative control.
# HIV-1 R5 (Bal) = test: p24 quantification after PBMC infection, R5 strain; type: cell-based; settings: p24 on day 7
# Procedure: as §2
# gp120 III-B = gp120 III-B (Human immunodeficiency virus type 1 group M subtype B, UniProt P04578); settings: donor serum 1/200, Fab 0.01-30 μg/ml
# HIV-1 RF = test: Infectivity reduction assay (IRA) in MT-2 cells, RF; type: cell-based; settings: Fab 10 μg/ml
# Procedure: as §1
# HIV-1 MN = test: Infectivity reduction assay (IRA) in MT-2 cells, MN; type: cell-based; settings: Fab 10 μg/ml
# Procedure: as §1
molecule,measurement,setting,value
B1,neutralisation,HIV-1 LAI strain,poorly neutralised
same,Fab-treated mice with undetectable p24,"HIV-1 Bal; co-culture day 7, 100 TCID50 HIV-1 Bal",100%
same,Fab-treated mice with undetectable p24,"HIV-1 Bal; co-culture day 14, 100 TCID50 HIV-1 Bal",seven of eight
same,% neutralisation,HIV-1 MN strain; Fab 10 μg/ml,100%
same,% neutralisation,[1],32%
same,% neutralisation,HIV-1 SF-2,greater than 90%
same,Fab concentration for 50% neutralisation,HIV-1 X4 (NL4-3),less than 0.1 μg/ml
same,Fab concentration for 50% neutralisation,HIV-1 R5 (Bal),less than 0.1 μg/ml
same,inhibition of gp120 binding of donor serum IgG,gp120 III-B,inhibited
same,% neutralisation,HIV-1 RF,greater than 90%
same,% neutralisation,HIV-1 MN,greater than 90%
B2,% neutralisation,HIV-1 MN strain; Fab 1 μg/ml,100%
B3,% neutralisation,HIV-1 MN strain; Fab 20 μg/ml,92%
